Where two headings read alike, the source gives them in different places.
Legend:
Test in all cases: phage ELISA (4th round single clone screening): coated protein, rescued phage supernatant, anti-M13-HRP, OD450
recombinant human CHI3L1 [1] = molecular target: T1, recombinant human CHI3L1 (human, UniProt P36222 22-383)
T1 construct: also called rCHI3L1; human rCHI3L1

mouse rCHI3L1 [2] = molecular target: T2, mouse rCHI3L1 (mouse, UniProt Q61362 30-389, limits assumed)
T2 construct: also called mouse CHI3L1; murine CHI3L1

recombinant human CHI3L1 [3] = molecular target: T1, recombinant human CHI3L1; remark: listed apart in the source
mouse rCHI3L1 [4] = molecular target: T2, mouse rCHI3L1; remark: listed apart in the source

T1 sequence (P36222 22-383 limits assumed): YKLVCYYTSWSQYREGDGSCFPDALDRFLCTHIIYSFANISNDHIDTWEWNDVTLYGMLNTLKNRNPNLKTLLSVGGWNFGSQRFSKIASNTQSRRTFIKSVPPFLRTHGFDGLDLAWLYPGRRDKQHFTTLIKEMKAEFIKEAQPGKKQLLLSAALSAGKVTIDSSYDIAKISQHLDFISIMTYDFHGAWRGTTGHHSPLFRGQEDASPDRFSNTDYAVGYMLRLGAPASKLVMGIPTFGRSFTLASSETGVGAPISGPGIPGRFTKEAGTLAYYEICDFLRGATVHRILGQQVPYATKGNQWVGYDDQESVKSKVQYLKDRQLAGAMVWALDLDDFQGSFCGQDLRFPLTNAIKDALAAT
T2 sequence (Q61362 30-389 limits assumed): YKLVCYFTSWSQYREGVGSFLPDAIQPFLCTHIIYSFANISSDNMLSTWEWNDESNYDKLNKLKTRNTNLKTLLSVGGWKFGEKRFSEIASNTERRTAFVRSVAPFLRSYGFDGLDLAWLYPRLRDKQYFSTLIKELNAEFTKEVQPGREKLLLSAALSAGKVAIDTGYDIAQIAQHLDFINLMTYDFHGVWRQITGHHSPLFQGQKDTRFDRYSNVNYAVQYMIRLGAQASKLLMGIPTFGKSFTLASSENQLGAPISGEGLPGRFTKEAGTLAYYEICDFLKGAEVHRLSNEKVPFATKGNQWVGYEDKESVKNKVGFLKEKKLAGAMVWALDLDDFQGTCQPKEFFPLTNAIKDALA

binding result (recombinant human CHI3L1 [1])	binding result (mouse rCHI3L1 [2])	binding result (recombinant human CHI3L1 [3])	binding result (mouse rCHI3L1 [4])	Binder
binds	no binding	–	–	anti-CHI3L1 clone R4-39 (antibody, human IgG1, V domains shown, also called #hu R4-39) VH: EVQLVQSGAEVRKPGESLKISCKASGYRFTNYWIGWVRQMPGKGLEWMGIIYPDDSNTKYSPSFQGQVTISVDKPITTAYLQWSSLKASDTAMYYCVRLDTYYYDSSGFPFDAFDIWGQGTMVTVSS VL: DIQMTQSPSSLSAFVGDRVTITCQASQDISTFLSWYQQKPGKAPKLLIYDATNLETGVPSRFSGRGSGTDFTFTISSLQPEDVATYFCQQYDFLPLSFGGGTKVEIRR
–	–	binds	no binding	anti-CHI3L1 clone R4-93 (antibody, human IgG1, V domains shown, also called #hu R4-93) VH: not shown VL: NFMLTQPHSVSESPGKTVIISCTRSSGSIAHNYVQWYQLRPGSAPTTVISDDDQRPSGVPDRFSGSIDSSSNSASLTISGLRTEDEADYYCQSFDDSNWVFGGGTRLTVLG
–	–	binds	no binding	anti-CHI3L1 clone R4-63 (antibody, human IgG1, V domains shown, also called #hu R4-63) VH: EVQLVQSGAEVKKPGATVKISCKVSGYTFTDYYMHWVQQAPGKGLEWMGLVDPEDGETIYAEKFQGRVTITADTSTDTAYMELSSLRSEDTAVYYCATIGRPPDYWGQGTTVTVSS VL: QSVLTQPPSVSAAPGQKVTISCSGSSSNIGNNYVSWYQQLPGTAPKLLIYDNNKRPSGIPDRFSGSKSGTSATLGITGLQTGDEADYYCGTWDSSLSVWVFGGGTKLTVLG
–	–	binds	–	anti-CHI3L1 clone R4-62 (antibody, human IgG1, V domains shown, also called #hu R4-62) VH: EVQLVESGGGLVQPGGSLRLSCAASGLTFPNFAMTWVRQTPGKGLQWVSTISGRGDEPFYADSVKGRFTISRDNSKNMVYLHMNSLRAEDTAIYYCAKGGHFSSWDYWGQGTLVTVSS VL: NFMLTQPHSVSESPGKTVTISCTRSSGSIASNYVQWYQQRPDSAPTTVIYEDIERPSGVPDRFSGAIDSSANSASLTISGLQTEDEADYYCQSYDSSSYVFGTGTKVTVLG
–	–	binds	no binding	anti-CHI3L1 clone R4-53 (antibody, human IgG1, V domains shown, also called #hu R4-53) VH: QVQLVQSGAEVKKPGASVKVSCKASGYTFTSYYMHWVRQAPGQGLEWMGIINPSGGSTSYAQKFQGRVTMTRDTSTSTVYMELSSLRSEDTAVYYCASDIGDYGDYWGQGTTVTVSS VL: SYVLTQPPSVSVALGQTARITCGGNNIESKIVSWYQQKPGQAPVLVIFYDTDRPSGISERFSGSNSGNTATLTISRVEAGDEADYYCQVWDSNSDHVIFGGGTKLTVLG
binds	no binding	–	–	anti-CHI3L1 clone R4-2 (antibody, human IgG1, V domains shown, also called #hu R4-2) VH: QVQLVQSGAEVKKPGSSVKVSCKASGGTFSSYAISWVRQAPGQGLEWMGGIIPIFGTANYAQKFQGRVTITADESTSTAYMELSSLRSEDTAVYYCARGDIEYYDILTGYYYYFDYWGQGTLVTVSS VL: SYVLTQPPSVSVAPGKAARVTCGGNDIGSKSVQWYQQKPGQAPVLVISYDNDRPSGIPERFSGSNSGNTATLTISRVEAGDEADYYCQVWDSTSDHYVFGTGTKVTVQG
